Test: in vivo
Details: male, athymic nu/nu, mouse, iv, total radioactivity
[1] = 0.03 nmol, uptake in Red blood cell
[2] = 0.1 nmol, uptake in Red blood cell

## C[C@@H](O)[C@H](NC(=O)[C@@H]1CSSC[C@H](NC(=O)[C@@H](Cc2ccccc2)NC(=O)CN2CCN(CC(=O)O)CCN(CC(=O)O)CCN(CC(=O)O)CC2)C(=O)N[C@@H](Cc2ccc(O)cc2)C(=O)N[C@H](Cc2c[nH]c3ccccc23)C(=O)N[C@@H](CCCCN)C(=O)N[C@@H]([C@@H](C)O)C(=O)N1)C(=O)O [^111In-DOTATATE, metal not drawn]
0.03 nmol, uptake in Adrenals
  tissue uptake at 10 min: 3.4 ± 2.3 %ID/g
  tissue uptake at 0.5 h: 4.7 ± 4.4 %ID/g
  tissue uptake at 1 h: 4.6 ± 5.6 %ID/g
0.03 nmol, uptake in Kidney
  tissue uptake at 0.05 h: 19.2 ± 8.4 %ID/g
  tissue uptake at 10 min: 16 ± 4.1 %ID/g
  tissue uptake at 0.5 h: 14 ± 4.1 %ID/g
  tissue uptake at 1 h: 12.3 ± 3.7 %ID/g
0.03 nmol, uptake in Muscles
  tissue uptake at 0.05 h: 1.2 ± 0.7 %ID/g
  tissue uptake at 10 min: 0.9 ± 0.3 %ID/g
  tissue uptake at 0.5 h: 0.3 ± 0.1 %ID/g
  tissue uptake at 1 h: 0.07 %ID/g
0.03 nmol, uptake in Pancreas
  tissue uptake at 0.05 h: 6 ± 1.5 %ID/g
  tissue uptake at 10 min: 1.6 ± 1.4 %ID/g
  tissue uptake at 0.5 h: 4.7 ± 2.7 %ID/g
  tissue uptake at 1 h: 9.2 ± 1.9 %ID/g
0.03 nmol, uptake in Pituitary
  tissue uptake at 0.05 h: 1 ± 1.7 %ID/g
  tissue uptake at 10 min: 0.2 ± 0.2 %ID/g
  tissue uptake at 0.5 h: 0.5 ± 0.8 %ID/g
  tissue uptake at 1 h: < 0.05 %ID/g
0.03 nmol, uptake in Plasma
  tissue uptake at 0.05 h: 13.3 ± 1.6 %ID/g
  tissue uptake at 0.5 h: 3.2 ± 1 %ID/g
  tissue uptake at 1 h: 0.8 ± 0.1 %ID/g
[1]
  tissue uptake at 0.05 h: 3.5 ± 2.5 %ID/g
  tissue uptake at 0.5 h: 0.6 ± 0.2 %ID/g
  tissue uptake at 1 h: 0.3 ± 0.08 %ID/g
0.03 nmol, uptake in Stomach
  tissue uptake at 0.05 h: 5.6 ± 0.7 %ID/g
  tissue uptake at 10 min: 7.9 ± 2.2 %ID/g
  tissue uptake at 0.5 h: 8.1 ± 1.3 %ID/g
  tissue uptake at 1 h: 7.6 ± 1.1 %ID/g
0.03 nmol, uptake in Tumor
  tissue uptake at 0.05 h: 6.9 ± 3.6 %ID/g
  tissue uptake at 10 min: 10.7 ± 2.5 %ID/g
  tissue uptake at 0.5 h: 15.1 ± 7.5 %ID/g
  tissue uptake at 1 h: 12.8 ± 6.7 %ID/g
0.1 nmol, uptake in Adrenals
  tissue uptake at 1 h: 1.3 ± 0.2 %ID/g
0.1 nmol, uptake in Kidney
  tissue uptake at 0.05 h: 21.6 ± 3.9 %ID/g
  tissue uptake at 10 min: 15.6 ± 3.1 %ID/g
  tissue uptake at 0.5 h: 16.1 ± 5.5 %ID/g
  tissue uptake at 1 h: 16.7 ± 8.6 %ID/g
0.1 nmol, uptake in Muscles
  tissue uptake at 0.05 h: 1.5 ± 0.6 %ID/g
  tissue uptake at 10 min: 0.7 ± 0.2 %ID/g
  tissue uptake at 0.5 h: 0.4 ± 0.4 %ID/g
  tissue uptake at 1 h: 0.3 ± 0.4 %ID/g
0.1 nmol, uptake in Pancreas
  tissue uptake at 0.05 h: 11.9 ± 4 %ID/g
  tissue uptake at 10 min: 9.9 ± 4.2 %ID/g
  tissue uptake at 0.5 h: 7 ± 1.4 %ID/g
  tissue uptake at 1 h: 4.7 ± 0.5 %ID/g
0.1 nmol, uptake in Pituitary
  tissue uptake at 0.05 h: 0.3 ± 0.2 %ID/g
  tissue uptake at 10 min: 0.2 ± 0.09 %ID/g
  tissue uptake at 0.5 h: 0.1 ± 0.2 %ID/g
  tissue uptake at 1 h: < 0.05 %ID/g
0.1 nmol, uptake in Plasma
  tissue uptake at 0.05 h: 13.2 ± 1.7 %ID/g
  tissue uptake at 10 min: 8.6 ± 1.4 %ID/g
  tissue uptake at 0.5 h: 3.4 ± 1.7 %ID/g
  tissue uptake at 1 h: 1 ± 0.6 %ID/g
[2]
  tissue uptake at 0.05 h: 5.2 ± 0.7 %ID/g
  tissue uptake at 0.5 h: 0.8 ± 0.4 %ID/g
  tissue uptake at 1 h: 0.2 ± 0.1 %ID/g
0.1 nmol, uptake in Stomach
  tissue uptake at 0.05 h: 4.4 ± 1.1 %ID/g
  tissue uptake at 10 min: 5.2 ± 1.1 %ID/g
  tissue uptake at 0.5 h: 6.3 ± 2 %ID/g
  tissue uptake at 1 h: 6 ± 1.8 %ID/g
0.1 nmol, uptake in Tumor
  tissue uptake at 10 min: 11.8 ± 3.6 %ID/g
  tissue uptake at 1 h: 9.9 ± 2.6 %ID/g
0.3 nmol, uptake in Adrenals
  tissue uptake at 0.05 h: 2.3 ± 0.6 %ID/g
  tissue uptake at 10 min: 1.2 ± 0.4 %ID/g
  tissue uptake at 0.5 h: 1 ± 0.1 %ID/g
  tissue uptake at 1 h: 0.8 ± 0.3 %ID/g
0.3 nmol, uptake in Kidney
  tissue uptake at 0.05 h: 17.2 ± 5.4 %ID/g
  tissue uptake at 10 min: 12.8 ± 2.2 %ID/g
  tissue uptake at 0.5 h: 16.9 ± 6.3 %ID/g
  tissue uptake at 1 h: 13.4 ± 2.8 %ID/g
0.3 nmol, uptake in Muscles
  tissue uptake at 0.05 h: 1.1 ± 0.1 %ID/g
  tissue uptake at 10 min: 0.5 ± 0.1 %ID/g
  tissue uptake at 0.5 h: 0.3 ± 0.1 %ID/g
  tissue uptake at 1 h: < 0.05 %ID/g
0.3 nmol, uptake in Pancreas
  tissue uptake at 10 min: 3.5 ± 0.3 %ID/g
  tissue uptake at 0.5 h: 3.2 ± 0.4 %ID/g
  tissue uptake at 1 h: 3 ± 1 %ID/g
